B1: PapMV HAV-ANP2 (designed binder)
chain: MASTPNIAFPAITQEQMSSIKVDPTSNLLPSQEQLKSVSTLMVAAKVPAASVTTVALELVNFCYDNGSSAYTTVTGPSSIPEISLAQLASIVKASGTSLRKFCRYFAPIIWNLRTDKMAPANWEASGYKPSAKFAAFDFFDGVENPAAMQPPSGLTRSPTQEERIANATNKQVHLFQAAAQDNNFASNSAFITKGQISGSTPTIQFLPPPETSKVWQIPHTRHHHHHH

Columns and labels:
[1] = biological target: T1, influenza A/WSN/33 (H1N1) NP protein (influenza virus A/WSN/33 (H1N1), UniProt P15682 1-498); experiment: phage display panning (Ph.D.-7) on NP coated on MaxiSorp plates, 5 rounds
T1 construct: also called recombinant NP; rNP

[2] = biological target: T1, influenza A/WSN/33 (H1N1) NP protein

T1 sequence (P15682 whole entry): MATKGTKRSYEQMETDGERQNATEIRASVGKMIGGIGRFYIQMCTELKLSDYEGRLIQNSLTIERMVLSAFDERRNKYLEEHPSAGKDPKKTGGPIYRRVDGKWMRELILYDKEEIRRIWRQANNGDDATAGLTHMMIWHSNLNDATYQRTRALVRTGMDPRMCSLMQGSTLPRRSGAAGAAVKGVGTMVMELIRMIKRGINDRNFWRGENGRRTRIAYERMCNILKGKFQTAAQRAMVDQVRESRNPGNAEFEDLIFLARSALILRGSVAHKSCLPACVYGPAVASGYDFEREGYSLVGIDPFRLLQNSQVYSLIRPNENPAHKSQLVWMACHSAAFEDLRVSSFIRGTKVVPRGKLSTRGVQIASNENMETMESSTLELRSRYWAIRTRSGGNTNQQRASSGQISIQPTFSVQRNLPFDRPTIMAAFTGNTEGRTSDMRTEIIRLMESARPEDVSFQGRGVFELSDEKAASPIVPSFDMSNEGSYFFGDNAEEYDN

| Binder | binding result [1] | fold increase of the avidity (OPD, nm) over HAV-ANP 1 and PapMV VLPs [2] | fold increase of the signal over PapMV HAV-ANP1 and PapMV VLPs [2] |
| --- | --- | --- | --- |
| FHEFWPT (also called ANP1) | binds |  |  |
| B1 |  | ~5 fold | 5 fold |

— US20130280298A1 (FOLIA BIOTECH, published 2013)
